US20250027068A1 (published 2025)

Target: pooled human IgG (human IgG1, 2, 3 and 4) (human)
Assay: cell-based or functional assay
Also: test concentration or dose not given here.

B1: PRT-443 (enzyme)
chain: MSQTEDSESLQRLRDIEDFQAEKKKQNVVYTKWLDGVDVKDHDFRKIVDGNIAYYATPLLNGRGFYDINKDFNRDSDKCAAAVAANMFHYWLDRNRDNVDRFLRQNPEKHGIIELPDEQLKLSDFLNTYESDDGYRDKSKLFDFISNNFNGPVWTDKLLDNYINGYAYNYKYGRTIEDPTKNTSKINFFKEVFNEKILTNNHSIRNQNEFSVLLSEALYTGKAIGLSYGPAGLRHSLGHIISVWGADLDADGNVVAIYVTDSDDKKLTIGDERVGLKRYKISTDDEGRLRLTAYEETHNTGGQIRGLWTLDTGKQAWADYFDKTEQTGTDQAEQ
Enzyme Activity Endpoint Assay: Fab′2: 17 ng/µL | Enzyme Activity Endpoint Assay: Fc: 0 ng/µL | Enzyme Activity Endpoint Assay: IgG: 431 ng/µL | Enzyme Activity Endpoint Assay: scIgG: 535 ng/µL

B2: PRT-401 (enzyme)
chain: MVTSVWTKGVTPPADFTQGEDVFHAPYVANQGWYDITKEFNGKDDLLCGAATAGNMLHWWFDQNKEYIEAYLKKHPEKQKIMFGDQELLDVRKAINTKGSQKNSELFNYFRDKAFPNLSARRLGVMPDLVLDMFINGYYLNVTKTQTTDVNRTYQEKDKRGGIFDAVFTRGDQSKLLTSRHDFKEKGLKEISDLIKQELTEGKALGLSHTYANVRINHVINLWGADFDSDGNLKAIYVTDSDSNASIGMKKYFVGVNSAGKVAISAKEIKEDNIGAQVLGLFTLSTGQDIWNQTN
Enzyme Activity Endpoint Assay: Fab′2: 624 ng/µL | Enzyme Activity Endpoint Assay: Fc: 329 ng/µL | Enzyme Activity Endpoint Assay: IgG: 128 ng/µL | Enzyme Activity Endpoint Assay: scIgG: 0 ng/µL

B3: PRT-409 (enzyme)
chain: MVTSVWTKGVTPPADFTQGEDVFHAPYVANQGWYDITKTFNGKDDLLCGAATAGNMLHWWFDQNKEYIEAYLKKHPEKQKIMFGDQELLDVRKAINTKGSQKNSELFNYFRDKAFPNLSARRLGVMPDLVLDMFINGYYLNVTKTQTTDVNRTYQEKDKRGGIFDAVFTRGVQSKLLTSRHDFKEKGLKEISDLIKQELTEGKALGLSHTYANVRINHVINLWGADFDSDGNLKAIYVTDSDSNASIGMKKYFVGVNSAGKVAISAKEIKEDNIGAQVLGLFTLSTGQDIWNQTN
Enzyme Activity Endpoint Assay: Fab′2: 658 ng/µL | Enzyme Activity Endpoint Assay: Fc: 313 ng/µL | Enzyme Activity Endpoint Assay: IgG: 0 ng/µL | Enzyme Activity Endpoint Assay: scIgG: 0 ng/µL

B4: PRT-410 (enzyme)
chain: MVTSVWTKGVTPPADFTQGEDVFHAPYVANQGWYDITKTFNGKDDLLCGAATAGNMLHWWFDQNKEYIEAYLKKHPEKQKIMFGDQELLDVRKAINTKGSQKNSELFNYFRDKAFPNLSARRLGVMPDLVLDMFINGYYLNVTKTQTTDVNRTYQEKDKRGGIFDAVFTRGDQSKLLTSRHDFKEKGLKEISDLIKQELTEGKALGLSHTYANVRINHVINLWGADFDSDGNLKAIYVTDSDTNASIGMKKYFVGVNSAGKVAISAKEIKEDNIGAQVLGLFTLSTGQDIWNQTN
Enzyme Activity Endpoint Assay: Fab′2: 567 ng/µL | Enzyme Activity Endpoint Assay: Fc: 297 ng/µL | Enzyme Activity Endpoint Assay: IgG: 206 ng/µL | Enzyme Activity Endpoint Assay: scIgG: 0 ng/µL

B5: PRT-402 (enzyme)
chain: MVTSVWTKGVTPPADFTQGEDVFHAPYVANQGWYDITKTFNGKDDLLCGAATAGNMLHWWFDQNKEYIEAYLKKHPEKQKIMFGDQELLDVRKAINTKGSQKNSELFNYFRDKAFPNLSARRLGVMPDLVLDMFINGYYLNVTKTQTTDVNRTYQEKDKRGGIFDAVFTRGDQSKLLTSRHDFKEKGLKEISDLIKQELTEGKALGLSHTYANVRLNHVINLWGADFDSDGNLKAIYVTDSDSNASIGMKKYFVGVNSAGKVAISAKEIKEDNIGAQVLGLFTLSTGQDIWNQTN
Enzyme Activity Endpoint Assay: Fab′2: 530 ng/µL | Enzyme Activity Endpoint Assay: Fc: 342 ng/µL | Enzyme Activity Endpoint Assay: IgG: 0 ng/µL | Enzyme Activity Endpoint Assay: scIgG: 188 ng/µL

B6: PRT-417 (enzyme)
chain: MTITSVWTKGVTPPTPEDFRYNNEDVLHAPYVANQGWYDITKTFDGKDNLLCGAATAGNMLHWWFDQNKEEIERYLKKHPEKQKIIFNNQELFDVKAAIDTKDSQTNSKLFNYFRDKAFPNLSARQLGVMPDLVLDMFINGYYLNLGKTQSTDVNRPYQDKDKRGGIFDAVFTRGDQTTLLTARHDLKNKGLNEISDLIKQELTEGKALALSHTYANVRINHVINLWGADFDAEGELIAIYVTDSDANASIGMKKYFVGVNANGKVAISAKKIEGDNIGAQVLGLFTLSTGQDIWQKLS
Enzyme Activity Endpoint Assay: Fab′2: 193 ng/µL | Enzyme Activity Endpoint Assay: Fc: 27 ng/µL | Enzyme Activity Endpoint Assay: IgG: 324 ng/µL | Enzyme Activity Endpoint Assay: scIgG: 0 ng/µL

B7: PRT-425 (enzyme)
chain: MTITSVWTKGVTPPTPEDFRYNNEDVLHAPYVANQGWYDITKTFDGKDNLLCGAATAGNMLHWWFDQNKEEIERYLKKHPEKQKIIFNNQELFDVKAAIDTKDSQTNSKLFNYFRDKAFPGLSARQLGVMPDLVLDMFINGYYLNLGKTQSTDVNRPYQDKDKRGGIFDAVFTRGDQTTLLTARHDLKNKGLNEISDLIKQELTEGKALALSHTYANVRINHVINLWGADFDAEGNLIAIYVTDSDANASIGMKKYFVGVNANGKVAISAKKIEGDNIGAQVLGLFTLSTGQDIWQKLS
Enzyme Activity Endpoint Assay: Fab′2: 568 ng/µL | Enzyme Activity Endpoint Assay: Fc: 27 ng/µL | Enzyme Activity Endpoint Assay: IgG: 169 ng/µL | Enzyme Activity Endpoint Assay: scIgG: 0 ng/µL

B8: PRT-418 (enzyme)
chain: MTITSVWTKGVTPPTPEDFRYNNEDVLHAPYVANQGWYDITKTFDGKDNLLCGAATAGNMLHWWFDQNKEEIERYLKKHPEKQKIIFNNQELFDVKAAIDTKDSQTNSKLFNYFRDKAFPNLSARQLGVMPDLVLDMFINGYYLNLGKTQSTDVNRPYQDKDKRGGIFDAVFTRGDQTTLLTARHDLKNKGLNEISDLIKQELTEGKALALSHTYANVRINHVINLWGADFDAEGNLIAIYVTDSDANASIGMKKYAVGVNANGKVAISAKKIEGDNIGAQVLGLFTLSTGQDIWQKLS
Enzyme Activity Endpoint Assay: Fab′2: 382 ng/µL | Enzyme Activity Endpoint Assay: Fc: 283 ng/µL | Enzyme Activity Endpoint Assay: IgG: 288 ng/µL | Enzyme Activity Endpoint Assay: scIgG: 149 ng/µL

B9: PRT-376 (enzyme)
chain: MVTSVWTKGVTPPTNFTYGEDVLHAPYVANQGWYDITKLFNGKDDLLCGAATAGNMLHWWFDQNKEQIENYLKKHPEKQKINFNGEQMFDVKEAIDTKDSQLDSKLFEYFKEKAFPYLSTKHLGVFPDHVIDMFINGYRLSLTNHGPTPVKRGSKDPRGGIFDAVFTRGDQSKLLTNRHDFKEKTLKEISDLIKQELTEGKALGISHTYANVRINHVINLWGADFDAEGNLEAIYVTDSDSNASIGMKKYFVGVNSNGKVAISAKEIEEDNIGAQVLGLFTLSTGQDIWNQTN
Enzyme Activity Endpoint Assay: Fab′2: 496 ng/µL | Enzyme Activity Endpoint Assay: Fc: 325 ng/µL | Enzyme Activity Endpoint Assay: IgG: 0 ng/µL | Enzyme Activity Endpoint Assay: scIgG: 196 ng/µL

B10: PRT-385 (enzyme)
chain: MVTSVWTKGVTPPTNFTYGEDVLHAPYVANQGWYDITKTFNGKDDLLCGAATAGNMLHWWFDQNKEQIENYLKKHPEKQKINFNGEQMFDVKEAIDTKDSQLDSKLFEYFKEKAFPYLSTKHLGVFPDHVIDMFINGYRLSLTNHGPTPVKRGSKDPRGGIFDAVFTRGDQSKLLTNRHDFKEKTLKEISDLIKQELTEGKALGISHTYANGRINHVINLWGADFDAEGNLEAIYVTDSDSNASIGMKKYFVGVNSNGKVAISAKEIEEDNIGAQVLGLFTLSTGQDIWNQTN
Enzyme Activity Endpoint Assay: Fab′2: 494 ng/µL | Enzyme Activity Endpoint Assay: Fc: 265 ng/µL | Enzyme Activity Endpoint Assay: IgG: 103 ng/µL | Enzyme Activity Endpoint Assay: scIgG: 56 ng/µL

B11: PRT-394 (enzyme)
chain: MVTSVWTKGVTPPTNFTYGEDVLHAPYVANQGWYDITKTFNGKDDLLCGAATAGNMLHWWFDQNKEQIENYLKKHPEKQKINFNGEQMFDVKEAIDTKDSQLDSKLFEYFKEKAFPYLSTKHLGVFPDHVIDMFINGYRLSLTNHGPTPVKRGSKDPRGGIFDAVFTRGDQSKLLTNRHDFKEKTLKEISDLIKQELTEGKALGISHTYANVRINHVINLWGADFDAEGNLEAIYVTDSDSEASIGMKKYFVGVNSNGKVAISAKEIEEDNIGAQVLGLFTLSTGQDIWNQTN
Enzyme Activity Endpoint Assay: Fab′2: 482 ng/µL | Enzyme Activity Endpoint Assay: Fc: 323 ng/µL | Enzyme Activity Endpoint Assay: IgG: 0 ng/µL | Enzyme Activity Endpoint Assay: scIgG: 209 ng/µL

B12: PRT-386 (enzyme)
chain: MVTSVWTKGVTPPTNFTYGEDVLHAPYVANQGWYDITKTFNGKDDLLCGAATAGNMLHWWFDQNKEQIENYLKKHPEKQKINFNGEQMFDVKEAIDTKDSQLDSKLFEYFKEKAFPYLSTKHLGVFPDHVIDMFINGYRLSLTNHGPTPVKRGSKDPRGGIFDAVFTRGDQSKLLTNRHDFKEKTLKEISDLIKQELTEGKALGISHTYANVRINHVINLWGADFDAEGNLEAIAVTDSDSNASIGMKKYFVGVNSNGKVAISAKEIEEDNIGAQVLGLFTLSTGQDIWNQTN
Enzyme Activity Endpoint Assay: Fab′2: 519 ng/µL | Enzyme Activity Endpoint Assay: Fc: 337 ng/µL | Enzyme Activity Endpoint Assay: IgG: 0 ng/µL | Enzyme Activity Endpoint Assay: scIgG: 240 ng/µL

B13: PRT-393 (enzyme)
chain: MVTSVWTKGVTPPTNFTYGEDVLHAPYVANQGWYDITKTFNGKDDLLCGAATAGNMLHWWFDQNKEQIENYLKKHPEKQKINFNGEQMFDVKEAIDTKDSQLDSKLFEYFKEKAFPYLSTKHLGVFPDHVIDMFINGYRLSLTNHGPTPVKRGSKDPRGGIFDAVFTRGDQSKLLTNRHDFKEKTLKEISDLIKQELTEGKALGISHTYANVRINHVINLWGADFDAEGNLEAIYVTDSDTNASIGMKKYFVGVNSNGKVAISAKEIEEDNIGAQVLGLFTLSTGQDIWNQTN
Enzyme Activity Endpoint Assay: Fab′2: 663 ng/µL | Enzyme Activity Endpoint Assay: Fc: 317 ng/µL | Enzyme Activity Endpoint Assay: IgG: 0 ng/µL | Enzyme Activity Endpoint Assay: scIgG: 0 ng/µL

B14: PRT-378 (enzyme)
chain: MVTSVWTKGVTPPTNFTYGEDVLHAPYVANQGWYDITKTFNGKDDLLCGAATAGNMLHWWFDQNKEQIENYLKKHPEKQKINFNGEQMFDVKEAIDTKDSQLDSKLFEYFKEKAFPSLSTKHLGVFPDHVIDMFINGYRLSLTNHGPTPVKRGSKDPRGGIFDAVFTRGDQSKLLTNRHDFKEKTLKEISDLIKQELTEGKALGISHTYANVRINHVINLWGADFDAEGNLEAIYVTDSDSNASIGMKKYFVGVNSNGKVAISAKEIEEDNIGAQVLGLFTLSTGQDIWNQTN
Enzyme Activity Endpoint Assay: Fab′2: 477 ng/µL | Enzyme Activity Endpoint Assay: Fc: 319 ng/µL | Enzyme Activity Endpoint Assay: IgG: 0 ng/µL | Enzyme Activity Endpoint Assay: scIgG: 207 ng/µL
